Laboratory results published in the RNAGym collection of RNA variant scans (doi:10.1073/pnas.2313332121).
Variants at the floor of the assay were thinned out.

B1: TPR 5TU (parent)
chain: GGAUCUUCUCGAUCUAACAAAAAAGACAAAUCUGCCACAAAGCUUGAGAGCAUCUUCGGAUGCAGAGGCGGCAGCCUUCGGUGGCGCGAUAGCGCCAACGUUCUCAACUAUGACACGCAAAACGCGUGCUCCGUUGAAUGGAGUUUAUCAUG

Variants of: B1
Experiment: polymerase ribozyme fitness, log enrichment relative to wild type (log ratio); higher = more active; in vitro selection for triplet polymerase activity
Outline: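 Streptavidin-bead capture of gel-excised extended constructs, followed by RT-PCR, closed a single triplicate in vitro selection round. That round began by annealing PCR-built, transcribed mutant libraries of each subunit of a heterodimeric triplet polymerase ribozyme with a biotinylated primer, the partner subunit and triplets, then incubating them frozen at −7 °C. After Illumina sequencing of inputs and outputs, genotypes needed ≥10 input reads and ≥1 read per output. Fitness is the base-2 logarithm of genotype enrichment over wild-type enrichment, using inverse-variance-weighted replicate averages.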

Variant	polymerase ribozyme fitness (log ratio)
GGAUCUUCUCGAUCUAACAAAAACGAGAAAUCUGCCACAAAGCUUGAGAGCAUCUUCGGAUGCAGAGGCGGCAGCCUUCGGUGGCGCGAUAGCACCAACGUUCUCGAUUAUGACACGCAAAACGCGUGCUCCGUUGAAUGGAGUUUAUCAUG [A24C C27G G94A A106G C108U]	-3.93
GGAUAUUCUCGAUCUAACAAAAAAGAUAAAUCUGCCACAAAGCUUGAGAGCAUCUUCGGAUGCAGAGGCGGCAGCCUUCGGUGGCGCGAUAGCGCCAACGUUCUCAACUAUGACACGCAAAACGCGUGCUCCGUUGAAUGGAGUUUAUCAUG [C5A C27U]	-1.46
GGAUCUUCUCGAUCUAACAAAAAAGACAAAUCUGCCACAAAGCCUGAGAGCAUCUUCAGAUGCGGAGGCGGCAGCCUUCGGUGGCGCGAUAGGGCCAACGUUCUCAACUAUGACACGCGAAACGCGUGCUCCGUUGAAUGGAGUUUAUCAUG [U44C G58A A64G C93G A119G]	≤ -4.2
GGAUCUUCUCGAUCUAACAAAAAAGACAAAUCUGCCACAAAGCUUGAGAGCAUCUUCGGAUGCAGAGGCGGCAGCAUUCGGUUGCGCGAUAGCGCCAACGUUCUCGACUAUGACACGCAAAACGCGUGCUCCGUUGAAUGGAGUUUAUCAUG [C76A G83U A106G]	-3.45
GGAUCUUCUCGAUCUAACAAAAAAGACAAAUCUGCCACAAAGCUUGAGAGCAUCUUCGGAUGCAGAGGCGGCAGCCUUCGGUGGCGCGAUAGCGCCAACGUUCUCAACUAUGACACGCAAAACGCAUGCUCCGUUGAAUGGAGUUUAUCGUG [G126A A150G]	-2.66
GGAUCUUCUCGAUCUAACAAAAAAGACAAAUUUGCCACAAAGCUUAAGAGCAUCUUCGGUUGCAGAGGCGGCAGCCUUCGGUCGCGCGAUAGCGCAAACGUUCUCAACUAUGACACGCAAAACGCGUGCUCCGUUGAAUGAAGUUUAUCAUG [C32U G46A A60U G83C C96A G141A]	≤ -4.2
GGAUUUUCUCGAUCUAACAAAAAAGACAAAUCUGCCACAAAGCUUGAGAGCAUCUUCGGAUGCAGAGGCGGCAGCCUUCGGUGGUGCGAUAGCGCCAACGUUCUCAACUAUGACACGCAAAACGCGUGCUCCGUUGAAUGGAGUUUAUCAUG [C5U C85U]	-0.24
GGAUCUUCUCGAUCUAACGAAAAAGACAAAUCUGCCACAAAGCCUGAGAGCAUCUAUGGAUGCAGAGGCGGCAGCCUUCGGUGGUGCGAUAGCGGCAACGUUCUCAACUAUGACACGCAAAACGCGUGCUCCGUUGAAUGGAGUUUAUCAUG [A19G U44C U56A C57U C85U C95G]	≤ -4.2
GGAUCUUCUCGAUCUAACAAAAAACACAAAUCUGCCACAAAGCUUGAGAGCAUCUUCGGAUGCAGAGGCGGCAGACUUCGGUGGCGCGAUAGCGCCAACGUUCACAACUAUGACACGCUAAACGCGUGCUCCGGAGAAUGGAGUUUAUCAUG [G25C C75A U104A A119U U134G U135A]	≤ -4.2
GGAUCUUCUCGAUCUAACAAAAAAGAAAAAUCUGCCACAAAGCUUGAGUGCAUCUUCGGAUGCAGAGGCGGCAGCCUUCGGUGGCGAGAUAGCGCCAACGUUCUCAACUAUGACACGCAAAACGCGUGCUCCGCUGAAUGAAGUUUAUCAUG [C27A A49U C87A U134C G141A]	≤ -4.2
GGAUCUUCUCGAUCUAACAAAAAAGACAAAUCUGCCACAAAGCUUGAGAGCAUCUUCGGAUGCAGAGGCGGCAGCCUUCGGUGGCGCGAUAGCCCCGACGUUCUCAACUAUGACACGCAAUUCGCGUGCUCCGUUGAAUGGAGUUUAUCAUG [G94C A97G A121U A122U]	-0.691
GGAUCUUCUCGAUCUAACAAAAAAGACAAAUCUGCCACAAAGUUUGAGAGCAUCUUCGGAUACAGAGGCGGCAGCCUUCGGUGGCGCGAUAGCGCCAACGUUCUCAACUAUGACACGCUAAACGCGUGCUCCGAUGAAUGGAGUUUAUCAUG [C43U G62A A119U U134A]	≤ -4.2
GGAUCUUCACGAUCUAACAAAACAGACAAAUUUGCCACAAAGCUUGAGAGCAUCUUCGGAUGCAGAGGCGGGAGCCUUCAAUGGCGCGAUAGCGCCAACGUUCUCAACUAUGACACGCAAAACGCGUGCUCCGUUGAAUGGAGUUUAUCAUG [U9A A23C C32U C72G G80A G81A]	≤ -4.2
GGAUCUUCUCGAUCUAACAAAAAAGACAAAUCUGCCACAAAGCUUGAGAGCAUCUUGGGAUGCAGAGGCGGCAGCCUUCGGUGGCGCGAUAGCGCCAACGUUCUCAACUAUGAUACGCAAAACGCGUGCUCCGUUGAAUGGAGUUUAUCAUG [C57G C114U]	-1.83
GGAUCUUCUCGAUCUAUCAAAAAAGACAACUCUGCCAUAAAGCUUGAGAGCAGCUUCUGAUGCAGAGGCGGCAGCCUUCGGUGGCGCGAUAGCGCCAAUGUUCUCAACUAUGACACGCAAAACGCGUGCUCUGUUGAAUGGAGUUUAUCAUG [A17U A30C C38U U53G G58U C99U C132U]	≤ -4.2
GGAUCUUCUCGAUCUAACAAAAAAGACAAAUAUGCCACAAAGCAUGAGAGCAUCUUCGGCUGCAGAGGCGGCAGCCUUGGGUGGCGCGAUAUCGCCAACGUUCUCAACUAUGACACGCAAAACGCGUGCUCCGUUGAAUGGAGUUUAUCAUG [C32A U44A A60C C79G G92U]	≤ -4.2
GGAUCUUCUCGAUCUAACAAAAAAGACAAGUCUGCCACCAAGCUUGAGAGCAUCGUCGGAUGCAGAGGCGGCAGCCUUCGGCGGCGCGAUAGCGCCAACGUUCUCAACUAUGACACGCAAAACGCGUGCUCCGUUUAAUGGAGUUUAUCAUG [A30G A39C U55G U82C G136U]	≤ -4.2
GGAUCUUCUCGAUCUAGCAAAAAAGACAAAUCUGCCACAAAGCUUGAGAGCAUCUUCGGAUGCAGAGGCGGCAGCCUUCGGUGGCGCGAUAGCGCCAACGUUCUCAACUAUGCCACGCAAAACGCGUGCUCCGUUGAAUGGAGUUUAUCAUG [A17G A113C]	-2.83
GGAUCUUCUCGAUCUAACAAAAAAGACAAAUCUGCCACAAAGCUUGAGCGCAUCUUCGGAUGCAGAGGCGGCAGCCUUCGGUGGCGCGAUAGCGCCGACGUUCUCAACUAUGACACGCAAAACGCGUGCUCCGUUGAAUGGAGUUUACCAUG [A49C A97G U148C]	≤ -4.2

Variant	polymerase ribozyme fitness (log ratio)
GGAUCUUCUCGAUCUAACAAAAAAGACAAAUCUGCCACCAAGCUUGAGAGCAUCUUCGGAUGCAGAGGCGGCAGCCUUGGGUGGCGCGAUAACGCCAACGUUCUCAACUAUGACACGCAAAACGCGUGCUCCGUUGAAUGGAGUUUAUCAUG [A39C C79G G92A]	-3.32
GGAUCUUCUCGAUCUAACAAAAAAGACAGAUCUGCCUCAAAGCUUGAGAGCAUCUUCGGAUGCAGAGGCGGCAGCCUUCGGUGGCGCGAUAGCCCCAACGUUCUCAACUAUGACACGCAAAACGCGUGCUCCGUUGAAUGUAGUUUAUCAUG [A29G A37U G94C G141U]	≤ -4.2
GGAUCUUCUCGAUCUAACAAAAAAGACAAAUCUGCCACAAAGCUUGAGAGCAUCUUCGGAUGCAGAGGCGGCAGCCUUCGGUGGCGAGAUAGCGCCAACGUUCUCAACUAUGACACGCAAAACGCGUGCUCCGUUGAAUGUAGUUUAUCAUG [C87A G141U]	-3.64
GGAUCUUCUCGAUCUAACAAAAAACACAAAUCUGCCACAAAGCUUGAGAGCAUAUUCGGAUGCAGAGGCGGCAGCCUUCGGUGGCGCGAUAGCGCCAACGUUCUUAACUAUGACACGCAAAACGCGUGCUCCGUUGAAUGGAGUUUAUCAUG [G25C C54A C105U]	-3.21
GGAUCGUCUCGAUCUAACAAAAAAGACAAAUCUGCCACAAAGCUUGAGAGCAUCUUCGGAUGCAGAGGCGGCAGCCUUCGGUGGCGCGAUAACGCCAACGUUCUCAACUAUGACACGCAAAACGCGUGCUCCGUUGAAUGGAGUUUAUCAUG [U6G G92A]	-2.59
GGAUCUUCUCGAUCUAACAAAAAAGACAAAUCUGCCACAAAGCUUGUGAGCAUCUUCGGAUGCAGAGGCGGCAGCCUUCGGUGGCGCGAUAGCGCCAACGUUCUCAACUAUGACACGCAAAACGCCUGCUCCGUUGAAUGGAGUUUAUCAUG [A47U G126C]	-0.0812
GGAUCUUCUCGAUCUAACAAAAAUGACAAAUCUGCCACAAAGCUUGAGAGCAUCUUCGGAUGCAGAGGCGGCAGCCUUCGGUGGCGCGAUAGCGCCAACGUUCUCAACUAUGACACGCAAAACGAGUGCUCCGUUGAAUGGAGUUUAUCAUG [A24U C125A]	-0.572
GGAUCUUCUCGAUCUAACAAAAAAGACAAAUCUGCCACAUAGCUUGAGAGCAUCAUCGAAUGCAGAGGCGGCAGCCUUUGGGAGCGCGAUAGCGCCAACGUUCUCAACUAUGACACGCAAAACGCGUACUCCGUUGAAGGGAAUUUAUCAUG [A40U U55A G59A C79U U82G G83A G128A U139G G143A]	≤ -4.2
GGAUCUUCUCAAUCUAACAAAAAAGACAAAUCUGCCACUCAGCUUGAGAGCAUCUUCGGAUGCAGAGGCGGCAGCCUUCGGUGGCGCGAUAGCGCCAACCUUCUCAACUAUGACACGCAAAACGCGUGCUCCGUUGAAUGGAGUUUAUCAUG [G11A A39U A40C G100C]	≤ -4.2
GGAUCUUCUCGAUCUAACAAAAAAGGCAAAUCUGCCACAAAGCUUGAGAGCAUCUUCGGAUGCAGAGGCGGCAGCCUUCGGUGGCGCGAUAGCGCCAAUGUUCUCAACUAUGACACGCAAAACGCGUGCUCCGUUGAAUGGAGUUUAUCAUG [A26G C99U]	-3.69
GGAUCUUCUCGAUCUAACAAAAAAGACAAAUCUGCCACAAAGCGUGAGAGCAUCUUCGGAUGCAGAGGCGGCAGCCUUCGGUGGCGCGAUAGUGCCAACGUUCUCAACUAUGACACGCAAAACGCGUGCUCCGUUGGAUGGAGUUUACCAUG [U44G C93U A137G U148C]	≤ -4.2
GGAUCUUCUCGAUCUAACAAAAAAGACAAAUCUGCCACAAAGCUUGAGAGCAUCUUCGGAUGCAGAGGCGGCAGCCUUCUGUGGCGCGAUAGCGCCAACGUUCUCAACUGUGACACGCAAAACGCGUGCUCCGUUGAAUGGAGUUUAUCAUG [G80U A110G]	-4.05
GGAUCUUCUCGAUCUAACAAAAAAGACAAAUCUGCCACAAAGCUUGAGAGCAACUUCGGAUGCAGAGGCGGCAGCCUUCGGUGGCGCGAUAGCGCUAACGUUCUGAACUAUCACACGCAAAACGCGUGCUCCGUUGAAUGGAGUUCAUCAUG [U53A C96U C105G G112C U146C]	≤ -4.2
GGAUCUUCUCGAUCUUACAAAAAAGACAAAUCUGCCACAAAGCUUGAGAGCACCUUCGGAUGCAGAGGCGGCGGCCUUCGGUGGCGCGAUAGCCCCAACGUUCUCAACUAUGACACGCAAAACGCGUGCUCCGUUGAAUGGAGUUUAUCCUG [A16U U53C A73G G94C A150C]	≤ -4.2
GGAUCUUCUCGAUCUAACAAAAAAGACAAAACUGCCACAAUGCUUGAGAGCAUCUUCGGAUGCAGAGGCGGCAGCCUUCGGUCGCGCGAUAGCGCCAACGUUCUCAACUAGGACACGCAAAACGCGUGCUCCGUUCAAUGGAGUUUAUCAUG [U31A A41U G83C U111G G136C]	≤ -4.2
GGAUCUUCUCGAUCUAACAUAAAAGACAAAUCUGCCACAAAGCUUGAGAACAUCGUCGGAUGCAGAGGCGGCAGCCUUCGGUGGUGCGAUUGCGCCAACGUUCUCAACUAUGACACGCAAAACGCGUGCUCCGUUGGAUGGAGUUUAUCAUG [A20U G50A U55G C85U A91U A137G]	≤ -4.2
GGAUCUUCUCGAUCUAACAAAAAAGACAAAUCUGCCACAAAGCUUGAGAGCAUCUUCGGAUGCAGAGGCGGCAGCCAUCGGUGGCGUGAUAGCGCCACCGUUAUCAACUAUGACACGCAAAACGUGUGCUCCGUGGAAUGGAGUUUAUCAUG [U77A C87U A98C C103A C125U U135G]	≤ -4.2
GGAUCUUCUCGAUCUAACAAAUAAGACAGAUCUGCCACAAAGCUUGAGAGCAUCUUCGGAUGCAGAGGCAGCAGCCUUCGGUGGCGCGAUAGCGCCAACGUUCUCAACUAUGACACGCAAAACGCGUGCUCCGUUGAAUGGAGUUUAUCAUG [A22U A29G G70A]	≤ -4.2
GGAUCUUCUCGAUCUAACAAAAAAGACAAAUCUGCCACAAAGCUUGAGAGCAUCUUCGGCUGCAGAGGCGGCAGCCUUCGGUGGCGAGAUAGCGCCAUCGUUCUCAACUAUGACACGCAAAACGCGUGCUCCGUUGAAUGGAGUUUAUCAUG [A60C C87A A98U]	≤ -4.2
